Changes are numbered by the printed parent chain. Names may count otherwise.
T1: dimeric, His-tagged, C-terminally biotinylated ECD of FcγRIIA allotype 131H (Homo sapiens (Human), UniProt P12318 34-215, C-terminally biotinylated)
T1 sequence: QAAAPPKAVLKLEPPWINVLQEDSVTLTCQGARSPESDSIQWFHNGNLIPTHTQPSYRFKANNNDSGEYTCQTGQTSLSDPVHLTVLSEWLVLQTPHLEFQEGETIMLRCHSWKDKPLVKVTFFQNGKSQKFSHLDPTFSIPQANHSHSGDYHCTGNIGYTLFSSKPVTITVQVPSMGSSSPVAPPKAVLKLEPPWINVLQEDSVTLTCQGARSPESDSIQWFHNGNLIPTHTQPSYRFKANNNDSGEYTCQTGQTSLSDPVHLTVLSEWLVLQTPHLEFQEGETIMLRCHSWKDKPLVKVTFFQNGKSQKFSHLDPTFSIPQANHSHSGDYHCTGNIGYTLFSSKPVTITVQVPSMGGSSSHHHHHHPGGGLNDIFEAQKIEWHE

T2: dimeric, His-tagged, C-terminally biotinylated ECD of FcγRIIA allotype 131R (Homo sapiens (Human), UniProt P12318 36-215, C-terminally biotinylated)
T2 chain: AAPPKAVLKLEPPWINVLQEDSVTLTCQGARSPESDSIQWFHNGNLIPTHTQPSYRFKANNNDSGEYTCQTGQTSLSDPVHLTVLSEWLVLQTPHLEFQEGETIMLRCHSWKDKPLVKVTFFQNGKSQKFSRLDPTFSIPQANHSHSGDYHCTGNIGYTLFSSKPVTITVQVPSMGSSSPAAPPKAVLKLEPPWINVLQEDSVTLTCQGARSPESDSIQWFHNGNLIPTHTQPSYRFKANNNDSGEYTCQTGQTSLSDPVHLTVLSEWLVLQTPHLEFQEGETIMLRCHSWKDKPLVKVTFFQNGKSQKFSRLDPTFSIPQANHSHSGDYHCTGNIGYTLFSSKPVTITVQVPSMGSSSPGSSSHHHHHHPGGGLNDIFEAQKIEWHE

T3: dimeric, His-tagged, C-terminally biotinylated ECD of FcγRIIB (Homo sapiens (Human), UniProt P31994 44-223, C-terminally biotinylated)
T3 construct: also called diFCGR2B-HisBAP
T3 sequence: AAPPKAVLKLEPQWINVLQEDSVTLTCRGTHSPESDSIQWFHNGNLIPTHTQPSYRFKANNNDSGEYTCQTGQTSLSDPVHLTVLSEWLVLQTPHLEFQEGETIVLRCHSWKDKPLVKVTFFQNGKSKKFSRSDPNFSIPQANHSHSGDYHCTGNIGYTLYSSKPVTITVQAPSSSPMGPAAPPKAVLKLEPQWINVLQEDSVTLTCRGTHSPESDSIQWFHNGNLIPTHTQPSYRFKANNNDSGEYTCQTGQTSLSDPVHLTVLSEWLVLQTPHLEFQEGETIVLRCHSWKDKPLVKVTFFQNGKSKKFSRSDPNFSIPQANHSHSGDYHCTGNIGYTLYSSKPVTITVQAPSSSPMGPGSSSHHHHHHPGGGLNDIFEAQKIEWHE

B1: IgG1-11B8-E430G-S440K with introduced mutation G237A (antibody, name in EU numbering)
heavy: EVQLVQSGGGLVHPGGSLRLSCTGSGFTFSYHAMHWVRQAPGKGLEWVSIIGTGGVTYYADSVKGRFTISRDNVKNSLYLQMNSLRAEDMAVYYCARDYYGAGSFYDGLYGMDVWGQGTTVTVSSASTKGPSVFPLAPSSKSTSGGTAALGCLVKDYFPEPVTVSWNSGALTSGVHTFPAVLQSSGLYSLSSVVTVPSSSLGTQTYICNVNHKPSNTKVDKRVEPKSCDKTHTCPPCPAPELLGAPSVFLFPPKPKDTLMISRTPEVTCVVVDVSHEDPEVKFNWYVDGVEVHNAKTKPREEQYNSTYRVVSVLTVLHQDWLNGKEYKCKVSNKALPAPIEKTISKAKGQPREPQVYTLPPSREEMTKNQVSLTCLVKGFYPSDIAVEWESNGQPENNYKTTPPVLDSDGSFFLYSKLTVDKSRWQQGNVFSCSVMHGALHNHYTQKKLSLSPGK
light: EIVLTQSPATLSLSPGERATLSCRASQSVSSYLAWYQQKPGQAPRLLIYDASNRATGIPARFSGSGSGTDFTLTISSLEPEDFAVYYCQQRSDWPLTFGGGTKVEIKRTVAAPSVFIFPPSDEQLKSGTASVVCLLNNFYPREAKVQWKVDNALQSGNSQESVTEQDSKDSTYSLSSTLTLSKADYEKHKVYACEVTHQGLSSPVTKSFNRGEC
notes: also called IgG1-11B8-E430G-S440K-G237A
B2: IgG1-CAMPATH-1H-E430G-K439E with introduced mutation G237A (antibody, name in EU numbering)
heavy: QVQLQESGPGLVRPSQTLSLTCTVSGFTFTDFYMNWVRQPPGRGLEWIGFIRDKAKGYTTEYNPSVKGRVTMLVDTSKNQFSLRLSSVTAADTAVYYCAREGHTAAPFDYWGQGSLVTVSSASTKGPSVFPLAPSSKSTSGGTAALGCLVKDYFPEPVTVSWNSGALTSGVHTFPAVLQSSGLYSLSSVVTVPSSSLGTQTYICNVNHKPSNTKVDKRVEPKSCDKTHTCPPCPAPELLGAPSVFLFPPKPKDTLMISRTPEVTCVVVDVSHEDPEVKFNWYVDGVEVHNAKTKPREEQYNSTYRVVSVLTVLHQDWLNGKEYKCKVSNKALPAPIEKTISKAKGQPREPQVYTLPPSREEMTKNQVSLTCLVKGFYPSDIAVEWESNGQPENNYKTTPPVLDSDGSFFLYSKLTVDKSRWQQGNVFSCSVMHGALHNHYTQESLSLSPGK
light: not shown
notes: also called IgG1-CAMPATH-1H-E430G-K439E-G237A
B3: IgG1-Campath-E430G I253G/K439E (antibody)
heavy: B2 heavy with A241G, I257G
light: not shown
notes: also called IgG1-CAMPATH-1H-E430G-K439E with I253G; constant region IgG1m(f)-I253G-E430G-K439E
B4: IgG1-CAMPATH-1H-E430G-S440K-Q438N (antibody)
heavy: B2 heavy with A241G, Q442N, E443K, S444K
light: not shown
B5: IgG1-Campath-E430G I253K/S440K (antibody)
heavy: B2 heavy with A241G, I257K, E443K, S444K
light: not shown
notes: also called IgG1-CAMPATH-1H-E430G-S440K with I253K; constant region IgG1m(f)-I253K-E430G-S440K
B6: IgG1-CAMPATH-1H-E430G-K439E-Y436N (antibody)
heavy: B2 heavy with A241G, Y440N
light: not shown
notes: also called IgG1-Campath-E430G Y436N/K439E
B7: IgG1-Campath-E430G H310D/K439E (antibody)
heavy: B2 heavy with A241G, H314D
light: not shown
notes: also called IgG1-CAMPATH-1H-E430G-K439E with H310D; constant region IgG1m(f)-H310D-E430G-K439E
B8: IgG1-Campath-E430G I253R/S440K (antibody)
heavy: B2 heavy with A241G, I257R, E443K, S444K
light: not shown
notes: also called IgG1-CAMPATH-1H-E430G-S440K with I253R; constant region IgG1m(f)-I253R-E430G-S440K
B9: IgG1-CAMPATH-1H-E430G-S440K-Q438R (antibody)
heavy: B2 heavy with A241G, Q442R, E443K, S444K
light: not shown
notes: also called IgG1-Campath-E430G Q438R/S440K
B10: IgG1-Campath-E430G H310R/S440K (antibody)
heavy: B2 heavy with A241G, H314R, E443K, S444K
light: not shown
notes: also called IgG1-CAMPATH-1H-E430G-S440K with H310R; constant region IgG1m(f)-H310R-E430G-S440K
B11: IgG1-CAMPATH-1H-E430G-K439E-Y436K (antibody)
heavy: B2 heavy with A241G, Y440K
light: not shown
B12: IgG1-CAMPATH-1H-E430G-K439E-Q438R (antibody)
heavy: B2 heavy with A241G, Q442R
light: not shown
B13: IgG1-CAMPATH-1H-E430G-S440K-Y436N (antibody)
heavy: B2 heavy with A241G, Y440N, E443K, S444K
light: not shown
B14: IgG1-CAMPATH-1H-E430G-K439E-Q438N (antibody)
heavy: B2 heavy with A241G, Q442N
light: not shown
notes: also called IgG1-Campath-E430G Q438N/K439E
B15: IgG1-CAMPATH-1H-E430G-S440K-Y436K (antibody)
heavy: B2 heavy with A241G, Y440K, E443K, S444K
light: not shown
notes: also called IgG1-Campath-E430G Y436K/S440K
B16: IgG1-b12 (human IgG1 antibody b12, HIV gp120-specific) (antibody)
heavy: not shown
light: EIVLTQSPGTLSLSPGERATFSCRSSHSIRSRRVAWYQHKPGQAPRLVIHGVSNRASGISDRFSGSGSGTDFTLTITRVEPEDFALYYCQVYGASSYTFGQGTKLERKRTVAAPSVFIFPPSDEQLKSGTASVVCLLNNFYPREAKVQWKVDNALQSGNSQESVTEQDSKDSTYSLSSTLTLSKADYEKHKVYACEVTHQGLSSPVTKSFNRGEC
notes: also called IgG-b12

What was measured:
[1] = molecular target: T1, dimeric, His-tagged, C-terminally …; assay: FcγR ELISA
[2] = molecular target: dimeric, His-tagged, C-terminally biotinylated ECD of FcγRIIIA allotype 158F (C-terminally biotinylated); assay: FcγR ELISA
[3] = molecular target: T4, dimeric, His-tagged, C-terminally biotinylated ECD of FcγRIIIA allotype 158V (C-terminally biotinylated); assay: FcγR ELISA
T4 construct: also called diFCGR3A-158V-HisBAP; IIIA-158V

[4] = molecular target: T5, FcRnECDHis-B2M-BIO (biotinylated extracellular domain of human FcRn with a C-terminal His tag as dimer with … (human, UniProt P55899 24-297)); P61769 21-119, biotinylated (site not stated)); assay: FcRn ELISA, pH 7.4
T5 construct: Coated on Streptawell plates at 5 µg/mL; also called FcRnhsECDHis

[5] = molecular target: T1, dimeric, His-tagged, C-terminally …; assay: FcγR ELISA, 20 µg/mL antibody
[6] = molecular target: T2, dimeric, His-tagged, C-terminally …; assay: FcγR ELISA, 20 µg/mL antibody
[7] = molecular target: T3, dimeric, His-tagged, C-terminally …; assay: FcγR ELISA, 20 µg/mL antibody
[8] = molecular target: T5, FcRnECDHis-B2M-BIO (biotinylated …); assay: FcRn ELISA, pH 6.0

T5 sequence (P55899 other isoform, or with tags, fused parts or gaps limits assumed, chain 1 of 2): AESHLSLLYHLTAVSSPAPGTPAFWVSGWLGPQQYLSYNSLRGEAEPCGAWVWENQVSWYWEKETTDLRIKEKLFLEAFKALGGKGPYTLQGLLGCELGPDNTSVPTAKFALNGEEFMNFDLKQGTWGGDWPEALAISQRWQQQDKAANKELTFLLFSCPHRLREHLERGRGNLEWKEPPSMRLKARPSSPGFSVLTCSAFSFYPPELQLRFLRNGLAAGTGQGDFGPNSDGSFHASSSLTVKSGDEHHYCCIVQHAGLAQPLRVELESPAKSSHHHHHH
T5 sequence (P61769 21-119 limits assumed, chain 2 of 2): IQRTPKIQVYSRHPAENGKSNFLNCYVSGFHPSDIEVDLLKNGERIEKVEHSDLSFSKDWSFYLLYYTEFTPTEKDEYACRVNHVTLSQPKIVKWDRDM

Binder	binding result [4]	binding result [5]	binding result [6]	binding result [7]	other results
B1	–	–	–	–	binding result [1]: no binding (tested: 20 µg/mL); binding result [2]: no binding (tested: 20 µg/mL); binding result [3]: no binding (tested: 20 µg/mL)
B2	–	–	–	–	binding result [1]: no binding (tested: 20 µg/mL); binding result [3]: no binding (tested: 20 µg/mL)
B3	no binding (tested: 40 µg/mL)	–	–	–	–
B4	–	binds	binds	binds	–
B5	no binding (tested: 40 µg/mL)	–	–	–	–
B6	–	binds	binds	binds	–
B7	no binding (tested: 40 µg/mL)	–	–	–	–
B8	no binding (tested: 40 µg/mL)	–	–	–	–
B9	–	binds	binds	binds	–
B10	no binding (tested: 40 µg/mL)	–	–	–	–
B11	–	binds	binds	binds	–
B12	–	binds	binds	binds	–
B13	–	binds	binds	binds	–
B14	–	binds	binds	binds	–
B15	–	binds	binds	binds	–
B16	–	–	–	–	binding result [8]: binds
